Test results: the supplement of paper PMC12042874
± gives the uncertainty stated by the source.

Assay: amyloid nucleation score (Sup35N fusion, yeast selection) (log enrichment); library NNK1; higher = more nucleation; inactive = no reads after selection
Outline: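 Libraries of peptides of 20 random codons fused to Sup35N were expressed in psi-negative yeast and induced 24 hours with 100 μM copper sulfate. Selection was 7 days at 30°C on medium lacking adenine and uracil, and plasmid inserts were Illumina-sequenced before and after selection. Nucleation score is the DiMSum log enrichment of output over input reads, centred on the mode score of non-aggregating sequences, and sequences with under 100 input reads were left out.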

Substance	amyloid nucleation score
SADLCLMWSGTNC	inactive
SADQIYHKGQWHSWTNSTNQ	0.35 ± 0.29
SAGAYGVRGRGSTLMVVFEW	-0.066 ± 0.54
SAGYYPVVLCALILEAEYQD	-0.541 ± 0.61
SAHHLVIRFGMLYPREQHCL	0.299 ± 0.43
SAPFMNGLCTLSRVREISAH	0.222 ± 0.59
SARYTLKPQPWVHHLLK	0.523 ± 0.9
SATIKYHYFLTFFNVDRFCR	2.07 ± 0.46
SCETVWYVFNSAIACFTFRR	4.18 ± 0.15
SCFTTF	-1.54 ± 1.2
SCGSVFF	-0.758 ± 2.1
SCGTYFLFICHKSLYWHVHI	-0.594 ± 0.9
SCKDSCTEYSGAIYVLVWVK	0.604 ± 0.56
SCLIFVSHSTEGYYSTPTFP	2.26 ± 0.26
SCLPGPKRFL	0.496 ± 1.2
SCLSRASIYSRFHSNLYVKM	inactive
SCLVWLFRCFFRTYQYYEFI	0.253 ± 0.24
SCSELGMLERLDMGLTLEVL	-0.105 ± 0.36
SCVLRLNMAYIIVVVNSLEC	inactive
SCWPCQ	-1.09 ± 2.4
SCWVDSDHLNCFIYFTFVNT	-1.27 ± 2.7
SCYGEFEPFRESRMGRSNLA	0.538 ± 0.75
SDASLLTKSVFADGRDQVTR	0.433 ± 0.28
SDCVVVGHGVVRIYMDGVWP	5.84 ± 0.065
SDERKGPGYPSMITSWQGGS	-1.31 ± 2.4

Substance	amyloid nucleation score
SDGMFSYNVRFAQRSWMYRT	-0.14 ± 0.55
SDRSLVGRNAGM	-0.468 ± 0.65
SDSRVVLPLLIPLSART	0.865 ± 0.42
SDVLGMSQAIGASTSVAEVV	inactive
SDVYRGVVIVGHMIAKHMLV	0.494 ± 0.55
SEAMGMDNSQWSFALFMASM	0.184 ± 0.48
SEGKHNCKLT	-0.635 ± 0.95
SEIPKSYPNFDYVSFINNSL	-0.24 ± 0.39
SELEYPTMGVSVVRLCSSSG	0.1 ± 0.48
SELGVSSVRLERAFILGSWT	-1.63 ± 1
SEMPIFYLWDPQSGQRSWDG	0.036 ± 0.93
SESLWDRGTVPKRPCAASLQ	inactive
SFCSFEF	0.858 ± 0.88
SFDYRENCPINTVIWLRLCK	3.93 ± 0.098
SFFMYLNIRWIWSMCVNAIE	0.09 ± 0.58
SFGNVILSGIIRTTVLDRGV	-0.381 ± 0.74
SFHWQKGSSSYTVSPHSAKL	0.239 ± 0.26
SFMQFDIRFT	1.4 ± 0.27
SFNNFEFILVIDYKRKSYMR	-0.222 ± 0.36
SFNVAMCRCDVYL	7.027 ± 0.047
SFRCGSNNSIHD	-2.02 ± 1.7
SFSCSVVLNRILMGIIYTCG	-0.836 ± 0.55
SFSMFSEFSLLRCSAYRNPM	2.26 ± 0.063
SFTWRQNQVGNA	1.24 ± 0.4
SFVFLRNL	0.142 ± 0.32

Substance	amyloid nucleation score
SFWYYGDEKNVTVNLGFNES	-0.233 ± 0.79
SGGDFQCTRHMSVDLGLPVS	0.428 ± 0.64
SGGIQCTGGRISVSCAVGKN	-0.224 ± 0.94
SGGNLFRVMRWSMHFVSVRL	-0.355 ± 0.33
SGHNLWRRGQKWSL	-0.455 ± 0.58
SGINLLFVFS	2.95 ± 0.25
SGKPYLLGCTFSSVTLCPQV	-0.227 ± 0.38
SGKVVNPCMNDSDLVLNRIW	-0.011 ± 0.23
SGLLS	-1.12 ± 0.65
SGQPMIPGTCDNWNWRDYFT	6.04 ± 0.09
SGSALYLCAISLRVSTEEKP	-0.178 ± 0.85
SGSINENVKYSDTLVWLWKM	4.92 ± 0.055
SGTFLTFPYFIFCNVMICMS	6.969 ± 0.049
SHEFLSSVYQSVLIVSNF	-0.508 ± 0.58
SHERLNQCSNFSSWQNRGGL	-0.588 ± 0.73
SHFGNPLKIPVFNRWTQHKA	-0.263 ± 0.49
SHFLF	0.93 ± 0.7
SHLCLAMVVRGV	0.507 ± 0.56
SHLGVMLNIRYNKSPQTTAP	2.1 ± 0.41
SHLTRDSILRVRVCWTNCVQ	-0.026 ± 0.59
SHPRTYPWDSTDFVWLS	-0.549 ± 1.2
SHQVVGGLLTYSVWCKCLGC	3.92 ± 0.059
SHRWWIM	-0.597 ± 1.1
SHSFPGMWTDDTSALASREK	0.306 ± 0.59
SHSGFTCTCWCMALLYGVAS	1.22 ± 0.63

Substance	amyloid nucleation score
SHSLHLESSASSLTR	-1 ± 0.51
SHTRQ	-0.223 ± 0.91
SHYSSIVYGAMEDSGL	-1.6 ± 2.4
SIFIAGWGCISYKRRVACFR	inactive
SIFSSSEVGVQLYTMGG	0.91 ± 0.62
SIFVG	0.353 ± 1.2
SIHVVYNPTFQMNCYTFRLS	7.888 ± 0.05
SILETLGLAFVK	-0.41 ± 0.57
SILGRWDHDLWNLFGARSLV	-0.148 ± 0.89
SILQFALLMNSRDLVHRGYF	3.38 ± 0.17
SIMLADYPIHLVSNTPRMVL	0.809 ± 0.82
SINLCGLWKVYYILAFMW	-2.26 ± 2.4
SIPIVL	0.267 ± 0.35
SIRLHS	2.65 ± 0.31
SITMGQS	-0.546 ± 0.46
SIVETAVVSKYVERSYGQEG	-0.437 ± 0.36
SIVGWCICLREFSVRFSYAE	5.48 ± 0.075
SIWCGRYIIMESVGTPLRSR	0.438 ± 0.8
SIWVIRPAAGKSEGSISNVQ	0.531 ± 0.5
SKDCNKWVRPRHGLYRFGGF	0.071 ± 0.34
SKFNAIMNCDVIKRSLNCIN	0.022 ± 0.3
SKLLHMEWNQELDPSLSLLS	-1.14 ± 0.66
SKLMRVVCVVISVAYTWNEE	0.188 ± 0.32
SKSGLGYTGHLLVREREVVV	0.474 ± 1
SKSLKYICMYFQHTNSLASI	0.241 ± 1.2

Substance	amyloid nucleation score
SKSYVM	0.468 ± 0.29
SKVVGGESKVQ	1.05 ± 0.6
SLDLFSIKATRSDWSGFLRT	-0.613 ± 0.94
SLEWLESCFSDAHIHTAH	-0.733 ± 1.9
SLFATGN	inactive
SLFKRILYHVSGFRYCCTSV	-1.01 ± 1
SLFQYWDVRDVESTFSVCNC	6.339 ± 0.047
SLGLNMFGLLCSNFQSVRVK	0.129 ± 0.53
SLGVSDI	-1.16 ± 0.41
SLHCLMFVCSFRVSFEDWGE	4.77 ± 0.13
SLKDVPISCFNYMHC	4.39 ± 0.094
SLKMEDFKKNSKMRMDFINH	1.85 ± 0.19
SLLALLPLQYWVYRIKNLVH	-0.057 ± 1.5
SLLCWKLAVHQLGMIGNIYS	-0.452 ± 0.47
SLLNRVGLWRRSSLCLMTGC	0.538 ± 0.26
SLLSAMDLPPFLSYRLSPRW	0.059 ± 1.2
SLLSFCQSSRVTESSMAYCT	inactive
SLLTWFREYVDYTLYQWPGY	-0.131 ± 0.76
SLNPALFTVSYPLVMLENDT	0.19 ± 0.29
SLNSTFFCIEISVDDIEVLQ	-0.609 ± 0.52
SLPSNHTVLWTVWMMVFGAR	-1.09 ± 0.96
SLSFTEVGRNRLSWRSAHSK	-0.616 ± 1.7
SLSNCTGKNVLVTLS	0.428 ± 1.2
SLSRCMIYDYR	inactive
SLSRLRHNSFWQRTFAMLVS	inactive

Substance	amyloid nucleation score
SLTDAEGSWLHRSWVKWNRC	-0.208 ± 0.62
SLVLVYGFWELYLW	0.689 ± 0.84
SLVTDCYVPGFLYAMVIHAG	1.01 ± 0.45
SLVYQYIVLCTV	-1.47 ± 1.2
SLWFTYCQ	0.751 ± 0.38
SLYAQVCWRSVEFYPRLFPE	2.26 ± 0.12
SLYLYMGWPSHWVESVLPYG	0.043 ± 0.89
SLYVYISRFMTLMGCLTVNH	0.575 ± 0.35
SMCNCDPSVALRSMY	-0.279 ± 0.25
SMDLLRDLSVDKWAFF	0.133 ± 0.33
SMFGFTYIVGRMDGSIGWSL	0.647 ± 0.22
SMFRAFKGYLWGNCSREAQR	0.026 ± 0.25
SMFRVYYSGGQLQ	4.75 ± 0.058
SMGQHHMGGWVYGRKAEKLS	-0.185 ± 0.37
SMIGCYMTF	0.073 ± 0.36
SMKWSLYLQCRIMYIQTDSR	3.21 ± 0.12
SMMSGCGTGVAPKAWSGDGW	0.974 ± 0.62
SMPCQWR	0.503 ± 0.51
SMQQVSTSVQKVMDAYHWGW	0.554 ± 0.79
SMQSSVDYKRGAMTFI	0.424 ± 0.69
SMRLGKTIAVLVINEHGMLQ	2.17 ± 0.11
SMTLMWTTPSSYIAWI	-0.792 ± 0.48
SMWKWDQKGKDNGTKNNKRL	-0.939 ± 0.8
SMYFSHVSPFVWRSYCFLVC	inactive
SNFMGQD	0.733 ± 0.7

Substance	amyloid nucleation score
SNGIQPMERI	-1.01 ± 1.7
SNIQDCYRFEGLHKKTNENL	-0.684 ± 0.91
SNLLTRSPLMLSSIIMVMNC	-0.133 ± 0.75
SNMTSRYYNCMVTWVRILVR	1.19 ± 0.41
SNPSVNRHFVSSRGWLGKSN	-0.422 ± 1.4
SNRCSPDMESDVHSVKELYR	0.762 ± 0.41
SNSRFMLHGWAGIWFIWSWG	0.124 ± 0.5
SNVAVRTSCYTGARMYTRWW	1.94 ± 0.19
SPFSGVL	0.589 ± 0.25
SPHSLTFSLMVMVRKKMMRS	0.012 ± 1.4
SPIMEKACVD	-0.053 ± 1.6
SPKSLLKRLWEYARKNTVML	0.151 ± 0.49
SPPDVSNN	-0.169 ± 0.75
SPPSLRNLNYIFAY	-0.948 ± 2.4
SQAAGSVY	0.026 ± 0.25
SQEHCMVNTK	0.112 ± 0.59
SQFYVLVIWLSCALSMGSSI	-0.04 ± 0.45
SQMTDYVFTL	0.848 ± 0.85
SQTSVPGGSDEAGAGVKQGF	0.134 ± 0.56
SRCCRYLKHVRSIGSVQVAS	1.16 ± 0.32
SRCRNYYKVHVL	-1.17 ± 1.7
